This is an account of results in patent US20060165677A1, “DELETION FORMS OF IgE-DEPENDENT HISTAMINE RELEASING FACTOR HAVING HISTAMINE RELEASING ACTIVITY, HRF-BINDING PEPTIDES AND THE USES THEREOF” (EWHA UNIVERSITY-INDUSTRY COLLABORATION FOUNDATION, priority 2005, published 2006).

The test system of assay [1] is phage φ-HBP-2 expressing HRF-binding peptide. Briefly: Phage display peptide clone-binding capacity of immobilized HRF forms (ELISA). The settings on record: HRF form immobilized on plate, ELISA at 405 nm. As for the experimental part:
Each deletion form of HRF was immobilized on a plastic well, to which phage expressing HRF-binding peptide was added in order to investigate binding capacity of each HRF.
Particularly, each deletion form of HRF dissolved in coating buffer (0.1 M NaHCO3, pH 8.6) at the concentration of 20 μg/Ml was placed on polystyrene microtiter plate by 50 μl, followed by coating at 4° C. for overnight and non-specific binding was blocked with BSA. The plate was washed with 0.1% tween/TBS (TBST) 6 times, to which 30 μl of phage solution diluted in 30 μl of 6% BSA/PBS was added. The solution stood at room temperature for 2 hours. After washing with PBST five times, 100 μl of […] anti-M13 antibody (Pharmacia), diluted in 3% BSA/PBS at the ratio of 1:5000, was added to the solution, followed by standing at room temperature for one hour. After washing 6 times with PBST and once more with PBS, 100 μl of peroxidase substrate solution was added and color development was measured at 405 nm by using ELISA reader (Bio-Rad).
Background: ELISA stands for enzyme-linked immunosorbent assay.

Assay [2] deals with deletion forms of HRF. Briefly: Inhibition by HRF-binding peptide of HRF-induced histamine secretion in RBL-2H3 cells. Format: cell-based. As to conditions: RBL-2H3 cells sensitized with rat IgE. As for the experimental part:
RBL-2H3 cells (ATCC) were cultured in 24-well plate at the concentration of 5×10^4 cells/well, followed by sensitization with rat IgE antibody (0.2 μg/Ml, Serotec) for 60 minutes. The cells were treated with […] of recombinant HRF protein in 5% FBS/MEM medium (positive control). The cells were treated with heptamer peptide (Korean Registered Patent No. 457350B1) with different concentrations (0.0156-15.6 mM). 15 minutes later, rat anti-IgE antibody was added thereto. 4 hours later, supernatant was obtained and the isolated histamine was measured by using histamine analyzer (Astoria Analyzer, Series 300 system).

The target of assay [3] is T1, Del-N35HRF (Rattus norvegicus, UniProt P63029).
T1 construct: 6xHis (pRSET-A leader) (N); made in house; host or cells: E. coli BL21(DE3) or BL21(DE3)pLysS
T1 sequence (P63029 35-172): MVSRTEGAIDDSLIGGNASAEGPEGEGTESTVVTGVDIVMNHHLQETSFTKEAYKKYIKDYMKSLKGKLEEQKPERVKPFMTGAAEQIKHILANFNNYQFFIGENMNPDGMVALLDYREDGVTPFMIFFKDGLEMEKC
Kind of assay: Inhibition by HRF-binding peptides of Del-N35HRF-induced IL-8 secretion in BEAS-2B cells. Format: cell-based. As to conditions: Del-N35HRF 61 nM, peptide 6.1-610 nM, 24 hours. Here is the method:
The interactions between HRF-binding peptides and deletion forms of HRF were investigated in BEAS-2B cells. Del-N35HRF (61 nM) was treated to BEAS-2B cells by the same manner as described in Example 3. At that time, HRF-binding peptide and its mutant in which alanine was replaced (Korean Registered Patent No. 457350B1), and HRF-binding peptides in which amino acid 1 or 7 was deleted were added to Del-N35HRF with different concentrations (6.1-610 nM), followed by standing at room temperature for 10 minutes, which would be added to the cell lines. 24 hours later, supernatant was obtained and the released IL-8 was quantified by PIERCE.

Assay [4] deals with IgE sensitized human basophils. Kind of assay: Histamine releasing activity in human basophils according to HRF forms. The settings on record: compared with wild type HRF. Format: cell-based. As for the experimental part:
The activities of different deletion forms of HRF were compared by investigating histamine secretions in human basophils. 40 Ml of venous blood was taken from a donor with atopic dermatitis. To the blood sample was added 10 mM of EDTA, an anticoagulant, and 10 Ml of dextran containing 6% saline. The solution stood at room temperature for 90 minutes and then supernatant containing leukocytes was separated, followed by centrifugation at 150×g for 8 minutes. The recovered leukocytes were washed twice with PAG-EDTA (4 mM EDTA, 25 mM PIPES, 110 mM NaCl, 5 mM KCl, 0.003% HSA, 0.1% D-glucose), which were left in cold lactate buffer (13.4 mM lactic acid, 140 mM NaCl, 5 mM KCl, pH 3.9) for 3-5 minutes to eliminate IgE adhered on the surface of cells. The cells were washed with 30 Ml of PAG-EDTA twice and resuspended in PAG-EDTA, followed by IgE-sensitization (1 μg/Ml, Serotec) for 2 hours. Then, the cells were washed with IMDM medium (Gibco BRL) supplemented with 5% FBS twice, to which each recombinant protein (rHRF or each deletion form of HRF) prepared in Example <1-3> was added by 20 μg/Ml. 15 minutes later, human anti-IgE antibody was added thereto. Four hours later, supernatant was obtained. The isolated histamine was measured by histamine analyzer (Astoria Analyzer, Series 300 system) (FIG. 6).

The subject of assay [5] is BEAS-2B cells. Briefly: IL-8 releasing activity in BEAS-2B cells according to HRF forms. Format: cell-based. The settings on record: for IL-8 releasing activity at low level of HRF: HRF 1 μg/Ml, lower than minimum level for IL-8 secretion by wild type HRF; for IL-8 releasing activity: compared with wild type HRF. Here is the method: The activities of different deletion forms of HRF were compared by investigating IL-8 secretions in BEAS-2B cells (ATCC). BEAS-2B cells were cultured in 48-well plate until they were 70% grown up. Then, the cells were washed with 1% penicillin-streptomycin/BEBM (Clonetics) twice, to which each recombinant protein (RrHRF or each deletion form of HRF) separated in Example <1-3> was added by 1 μg/Ml or 10 μg/Ml. 48 or 24 hours later, supernatant was obtained and IL-8 therein was measured by PIERCE (FIG. 5).

Entries after “also recorded” stand apart in the source; their conditions may differ.

On to “Del-N84C108HRF: deletion form of rat HRF, amino acid 84-108 fragment (TKEAYKKYIKDYMKSLKGKLEEQKP; listed as Rattus norvegicus)”, for which the “affinity to phage expressing HRF-binding heptamer peptide (HBP2)” value (“affinity” below) in assay [1] is given as “high”; in assay [1] (listed as SEQ ID NO:8) it was “excellent”.

Turning to “HBP-2: HRF-binding heptamer peptide having the sequence WYVYPSM (Korean Registered Patent No. 457350B1)”, the “inhibition of histamine releasing by deletion forms of HRF” value is reported as “inhibits” in assay [2] and “dose-dependently” in assay [2] (listed as HRF-binding peptide). The “inhibition of IL-8 secretion by deletion forms of HRF” value in assay [3] is reported as “inhibits”; in assay [3] (listed as HRF-binding peptide), “dose-dependently”.

B1: Del-N39C110HRF: deletion form of rat HRF, amino acid 39-110 fragment (protein, listed as Rattus norvegicus)
chain: TEGAIDDSLIGGNASAEGPEGEGTESTVVTGVDIVMNHHLQETSFTKEAYKKYIKDYMKSLKGKLEEQKPER
As to B1, the “affinity” value in assay [1] (listed as SEQ ID NO:5) is recorded as “excellent”.

B2: Del-C112HRF: deletion form of rat HRF, amino acid 1-112 fragment (protein, listed as Rattus norvegicus)
chain: MIIYRDLISHDELFSDIYKIREIADGLCLEVEGKMVSRTEGAIDDSLIGGNASAEGPEGEGTESTVVTGVDIVMNHHLQETSFTKEAYKKYIKDYMKSLKGKLEEQKPERVK
For B2, the histamine releasing activity result in assay [4] is given as “as much as that of wild type HRF”. The “affinity” value in assay [1] is “very weak and weak”.

B3: Del-N11HRF: deletion form of rat HRF, amino acid 11-172 fragment; 10 N-terminal residues deleted (protein, listed as Rattus norvegicus)
chain: DELFSDIYKIREIADGLCLEVEGKMVSRTEGAIDDSLIGGNASAEGPEGEGTESTVVTGVDIVMNHHLQETSFTKEAYKKYIKDYMKSLKGKLEEQKPERVKPFMTGAAEQIKHILANFNNYQFFIGENMNPDGMVALLDYREDGVTPFMIFFKDGLEMEKC
As to B3, the “IL-8 releasing activity at low level of HRF” value in assay [5] is given as “detected”. Besides, the IL-8 releasing activity result in assay [5] was “greater”; in assay [5] (listed as SEQ ID NO:2) it was “increased”. Further, the histamine releasing activity result in assay [4] is given as “more effectively than wild type HRF; also recorded: increased”; in assay [4] (listed as SEQ ID NO:2) it was “similarly induced histamine releasing”. Further, in assay [1], the “affinity” value is “very strong”.

B4: RrHRF: recombinant total-length rat HRF, amino acids 1-172 (Accession number U20525) (protein, listed as Rattus norvegicus)
chain: MIIYRDLISHDELFSDIYKIREIADGLCLEVEGKMVSRTEGAIDDSLIGGNASAEGPEGEGTESTVVTGVDIVMNHHLQETSFTKEAYKKYIKDYMKSLKGKLEEQKPERVKPFMTGAAEQIKHILANFNNYQFFIGENMNPDGMVALLDYREDGVTPFMIFFKDGLEMEKC
Turning to B4, the “affinity” value is “very weak” in assay [1] and “weak” in assay [1] (listed as wild type HRF).

B5: Del-N35HRF: deletion form of rat HRF, amino acid 35-172 fragment; 34 N-terminal residues deleted (protein, listed as Rattus norvegicus)
chain: T1 sequence (P63029 35-172)
For the molecule B5, the “IL-8 releasing activity at low level of HRF” value in assay [5] is given as “detected”. The IL-8 releasing activity result in assay [5] is “greater”; in assay [5] (listed as SEQ ID NO:3) it was “excellent; also recorded: increased”. Besides, the histamine releasing activity entry in assay [4] is given as “more effectively than wild type HRF; also recorded: increased”; in assay [4] (listed as SEQ ID NO:3), “excellent; also recorded: similarly induced histamine releasing”. Further, in assay [1], the “affinity” value was “very strong”.
